Square brackets hold non-standard residues; d marks the D form. Ends that are not written are not given here. Arg(Me2a) = CN(C)C(=N)NCCC[C@H](N)C(=O)O; Lys(Me3) = C[N+](C)(C)CCCC[C@H](N)C(=O)O; Arg(Me2s) = CN=C(NC)NCCC[C@H](N)C(=O)O; Arg(Me) = CNC(=N)NCCC[C@H](N)C(=O)O
Experiments:
[1] = molecular target: SPIN1_50–262 (Homo sapiens, UniProt Q9Y657); experiment: ITC of SPIN1_50–262 with synthetic peptides; type: binding; settings: relative to H3 K4me3–R8me2a
[2] = molecular target: Human Spindlin1 50–262 (SPIN1_(50–262)) (human) (UniProt Q9Y657); experiment: ITC
[3] = molecular target: bulky arginine mutations of residues W72, Y98, and F251; experiment: ITC
[4] = molecular target: T1, Human Spindlin1 50–262 (SPIN1_(50–262)) (human, UniProt Q9Y657 50-262); experiment: ITC
[5] = molecular target: T1, Human Spindlin1 50–262 (SPIN1_(50–262)); experiment: thermo-fluor stability assay
[6] = molecular target: SPIN1_(50–262) E142A (human, UniProt Q9Y657 50-262, E142A); experiment: ITC
[7] = molecular target: SPIN1_(50–262) D184A (human, UniProt Q9Y657 50-262, D184A); experiment: ITC
SPIN1_(50–262) D184A, sequence (Q9Y657 50-262 D184A): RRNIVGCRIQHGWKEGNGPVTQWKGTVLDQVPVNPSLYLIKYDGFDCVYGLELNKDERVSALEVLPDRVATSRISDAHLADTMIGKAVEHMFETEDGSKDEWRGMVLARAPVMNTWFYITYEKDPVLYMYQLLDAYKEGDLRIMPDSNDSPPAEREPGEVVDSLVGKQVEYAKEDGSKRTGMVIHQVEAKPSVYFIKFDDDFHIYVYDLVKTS

T1 sequence (Q9Y657 50-262): as the sequence (Q9Y657 50-262 D184A) above, with A135D counted along it
SPIN1_50–262, sequence (Q9Y657 50-262): as the sequence (Q9Y657 50-262 D184A) above, with A135D counted along it
Human Spindlin1 50–262 (SPIN1_(50–262)) (human), sequence (Q9Y657 50-262): as the sequence (Q9Y657 50-262 D184A) above, with A135D counted along it
SPIN1_(50–262) E142A, sequence (Q9Y657 50-262 E142A): as the sequence (Q9Y657 50-262 D184A) above, with E93A, A135D counted along it

C[C@H](N)C(=O)N[C@@H](CCCNC(=N)N)C(=O)N[C@H](C(=O)N[C@@H](CCCCN(C)C)C(=O)N[C@@H](CCC(N)=O)C(=O)N[C@H](C(=O)N[C@@H](C)C(=O)N[C@@H](CCCNC(=N)N(C)C)C(=O)N[C@@H](CCCCN)C(=O)N[C@@H](CO)C(=O)O)[C@@H](C)O)[C@@H](C)O [K4me2–R8me2a]
affinity reduction upon loss of one methyl group [1]: ~10 fold

H3 K4me2–R8me2a peptide
Kd [2]: 510 nM

H3_(1–10)K4me3R8me2a peptide (from UniProt P68431 2-11)
fold drop of affinity against wild-type SPIN1(50–262) [3]: 10 to 40 fold

B1: H3_(1–10)K4me3R8me1 peptide (peptide)
peptide: ART[Lys(Me3)]QTA[Arg(Me)]KS
Kd [4]: ~139 nM

B2: TCF4_(458–469) peptide (peptide)
peptide: RRKKKCVRYIQG
Kd [4]: 3900 nM

B3: H3_(1–10)K4me3R8me2s peptide (peptide)
peptide: ART[Lys(Me3)]QTA[Arg(Me2s)]KS
reduction of Tm against H3(1–10)K4me3R8me2a [5]: 2 °C

B4: H3_(1–10)K4me3R8me2a peptide (peptide, UniProt P68431 2-11, looked up)
peptide: ART[Lys(Me3)]QTA[Arg(Me2a)]KS
fold reduction of binding affinity against wild-type SPIN1(50–262) [6]: ~3 fold | fold reduction of binding affinity against wild-type SPIN1(50–262) [7]: ~90 fold | Tm of SPIN1(50–262) with the peptide [5]: 63.5 °C

B5: H3_(1–10)K4me3 peptide (peptide)
peptide: ART[Lys(Me3)]QTARKS
Kd [4]: ~147 nM | reduction of Tm against H3(1–10)K4me3R8me2a [5]: 4 °C

— article PMC3967050 (Genes & Development, 2014)
